Results: article PMC12561925

B1: recombinant soluble murine EphB3 Fc fusion protein (Fc fusion)
chain: LEETLMDTKWVTSELAWTSHPESGWEEVSGYDEAMNPIRTYQVCNVRESSQNNWLRTGFIWRREVQRVYVELKFTVRDCNSIPNIPGSCKETFNLFYYEADSDVASASSPFWMENPYVKVDTIAPDESFSRLDAGRVNTKVRSFGPLSKAGFYLAFQDQGACMSLISVRAFYKKCASTTAGFALFPETLTGAEPTSLVIAPGTCIANAVEVSVPLKLYCNGDGEWMVPVGACTCATGHEPAAKESQCRACPPGSYKAKQGEGPCLPCPPNSRTTSPAASICTCHNNFYRADSDSADSACTTVPSPPRGVISNVNETSLILEWSEPRDLGGRDDLLYNVICKKCRGSSGAGGPATCSRCDDNVEFVPRQLGLTERRVHISHLLAHTRYTFEVQAVNGVSGKSPLPPRYAAVNITTNQAAPSEVPTLHLHSSSGSSLTLSWAPPERPNGVILDYEMKYFEKSKGIASTVTSQKNSVQLDGLQPDARYVVQVRARTVAGYGQYSHPAEFETTSERGSGAQQLQEQLPL

Experiments:
[1] = biological target: MHV68 gL-gH fusion protein (gL-Linker-gH-Linker-His6) (murine gammaherpesvirus 68 (MHV68)); experiment: ELISA; MHV68 gL-gH fusion protein coated at 2.5 μg/ml in PBS on Maxisorp plates; soluble dimeric Eph-Fc proteins 2 h at room temperature in 1% BSA in PBS; detected with HRP-conjugated ProteinG; OD 450 nm; four-parameter dose-response fit
[2] = biological target: MHV68 gL-gH fusion protein (gL-Linker-gH-Linker-His6) (murine gammaherpesvirus 68 (MHV68))

Molecule | EC50 [1] [nM] | reduction of MHV68 ORF59-GFP infection of the murine endothelial cell line SVEC4-10 after pre-incubation of the virus with 100 nM homodimerized mEphA4-Fc [2] [%] | inhibition of MHV68 ORF59-GFP infection of human fibroblasts (HFF) and endothelial cells (TIME) after pre-incubation of the virus with 100 nM homodimerized mEphB3-Fc [2] [%]
recombinant soluble murine EphA4 Fc fusion protein (from UniProt Q03137-1 20-547) | 3.6 | 25 | 
B1 | 2.3 |  | 30
